Measured values from the supplement of paper PMC12042874.
± gives the uncertainty stated by the source.

Assay: amyloid nucleation score (Sup35N fusion, yeast selection) (log enrichment); library NNK1; higher = more nucleation; inactive = no reads after selection
How it was run: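 Peptides of 20 random codons fused to Sup35N were expressed in psi-negative yeast, induced 24 hours with 100 μM copper sulfate, then grown 7 days at 30°C on medium lacking adenine and uracil. Input and output plasmid inserts were Illumina-sequenced. Nucleation score is the DiMSum log enrichment of output over input reads, centred on the mode score of non-aggregating sequences, excluding sequences with under 100 input reads. Random libraries had three technical output replicates.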

Substance | amyloid nucleation score
SRFPYKKSVRTDSGRMSM | -0.393 ± 0.86
SSRCY | 0.104 ± 0.85
NPKSFNGCVFRLGGVPYFVS | 0.076 ± 0.36
LTFTLTDPDSHDANDKWPLH | -0.208 ± 0.66
DLRSPRNS | inactive
YLYIRLPVITVRLDWLFGAK | 0.464 ± 0.84
ETYGCFRYWISSLPVVEVSF | -0.368 ± 0.35
HYWDYAISRIR | -1.94 ± 2.4
QTCAYGLRNTTSTVCLYRWG | 0.294 ± 0.53
GNWYLCTGF | 1.58 ± 0.1
THDAFF | 0.642 ± 0.48
FWVSCRSMCEIRVSLKLRLN | 0.719 ± 0.59
GPYCHGWNLKNERAVSLRG | -0.647 ± 0.47
FSGLCRSTPGI | -0.469 ± 0.32
LGFAA | -0.339 ± 1.3
LKMFSRPCVMIKNRTGVR | 0.452 ± 0.33
QLTSACWYAVTGGGSTAGEG | -0.965 ± 1.4
SLLRRA | 0.575 ± 0.71
CVAGLVDGKRKNVIRKWFWN | 0.049 ± 0.44
SGTSLPNITLLDTFCTRCFV | -0.095 ± 0.22
YSYAGSLMAWSRKVHMHTEV | -0.19 ± 0.57
TRIVLLVVRRGTRKG | 0.889 ± 0.48
VLGSKKWDDLGYLYCRLCTH | 0.64 ± 0.65
HSGMRVPSMAYLVL | -0.259 ± 0.7
VLLVGVSDESRSRSPQGMSP | 0.243 ± 0.84
DVDGEVRVLDFV | -0.24 ± 0.45

Substance | amyloid nucleation score
MRACRYANLNVSRNMWGICG | 0.743 ± 0.48
NVGGFQSLPEYNSYRMRAEQ | 0.26 ± 0.56
RGRDHCYTTDWNGYRVMVPL | 0.58 ± 0.51
RSSLNTCWMGSYNVLGTRTG | 4.39 ± 0.11
SCSVYTGYSYGLRYNFDLVS | -1.81 ± 2.4
QTSIWFGDYYRKLSLCWHRP | 3.63 ± 0.097
AMGSDDE | -0.338 ± 1.3
HFKRWLVNLFLTEFEKSYGV | -1.28 ± 0.62
RPLRCWAIHYGQVYDSSAIL | 0.987 ± 0.62
VLMMLNGTDVKWMESANELS | 0.49 ± 0.41
KYLPPQVSSGWI | 1.01 ± 0.37
LNTGCDANQILAVCSRGVGV | 0.793 ± 0.43
SNCVIVSQLKITDA | -0.184 ± 0.44
CSDKKLGEWSASWNCNRDRM | -0.171 ± 1.7
APRHDCMSSDLQVVKMDFLL | 0.799 ± 0.41
QGSDASVGTAVGSTWEVCCC | -0.334 ± 0.36
NVDSRFD | -1.1 ± 0.81
FIATNLSLYGFVYWLLSTTT | 0.414 ± 0.42
YQDVIPNPVHRYTV | 0.371 ± 0.31
AGRIETIEIGSSCLSVCGGY | 0.328 ± 0.58
LSRLRLSAAGSADRESLVVS | 0.538 ± 0.5
KFVHNYSLKYIKGVVSCQFL | 0.727 ± 0.37
DNSLFLYQRAR | -0.449 ± 0.82
SVDLFSCRRIRLTLLEVFVT | -0.028 ± 0.41
PCKSCGLKFTRW | 0.235 ± 0.39
SHPTNFSCIVVSARQGVKKI | -0.148 ± 0.79

Substance | amyloid nucleation score
ASPVLFKWICPIYTS | 2.87 ± 0.15
FSSGVILSGRRRSLK | -0.437 ± 0.49
RYRDYSRRIDCLCYVSVPVY | 0.564 ± 0.4
EGITHVFIRDGVGSYLKAET | 1.33 ± 0.58
YFDVL | -0.537 ± 0.48
RMFPCYIAV | 0.015 ± 0.27
FVSNGSYVGIS | -0.42 ± 0.51
QVWWDVNEPPDLTPQGSRWG | inactive
WVCFIFIIFETVS | -0.207 ± 0.47
GGLAGTTLKLRICF | -1.03 ± 1.9
ACQLLMCLCFFETKGLYLDG | 7.603 ± 0.053
HCCSYLLKR | -0.174 ± 0.61
LRPKWVAGDVLFQIYPWTRR | 0.629 ± 0.85
LVPPVFRP | -1.11 ± 1.1
RLVKSEDSNKNGLDLCRYEL | 0.753 ± 0.56
SYLHMFTMFV | -0.654 ± 0.52
AESSPSVG | 0.271 ± 0.57
SGWIRLL | 0.66 ± 0.36
FNVISVWSPWQW | 6.3 ± 0.064
SMLALGFPSVNCQWTGATFS | 1.22 ± 0.97
IGLVCCCSSFEFMRWY | 2.49 ± 0.47
ISLTDRVSGNRAVYHCSYAS | -1.01 ± 1.4
DRFQNYFCILCFPFYANVCE | 2.71 ± 0.12
GITGSWINFRNCLTR | 0.774 ± 0.6
RGILNRVTLILDLRVHSSSD | 0.504 ± 0.32
NSYVLVNCALLRLGRINVFY | 7.56 ± 0.077

Substance | amyloid nucleation score
LYVHSFFRFMWSDKVLLSKT | 0.856 ± 0.56
RLCAINHPLCTFSQTMAWVH | 0.272 ± 0.29
MHWLRGVRS | 0.082 ± 0.47
TGRRLERGMRLRHGDAEYCC | 0.408 ± 0.28
SRASKYMYVWVVLITFHCLR | inactive
VKCPVGDDHWGSRGDASVIT | -0.004 ± 0.8
GMLRVYWSMSSVFSGMCDRC | 3.94 ± 0.1
SVCMLPIDGMGEEVRVFPGV | -0.641 ± 0.62
RSYLCDREYCVFGFCLGIYS | 3.44 ± 0.15
PQRRGHIRIDRILSSTWTVA | 0.197 ± 0.39
HIGYCQSVSTFSR | 10.2 ± 0.046
IFYSLFEDTYGGYVLNTAYL | inactive
TDLNLVMKKGSYVGCSSSCV | -0.605 ± 0.24
RERVISVWGL | -0.197 ± 0.45
VLGKLEWCNLSSVTRAPCFM | 0.14 ± 0.71
CIYSICYFCNS | 7.924 ± 0.043
VGRSQRMQKTLKVSVWYWIN | 0.117 ± 0.7
YSAVISHDVGLFVYLTETET | -0.363 ± 0.56
YFRRCFDRCVMSRLRPI | -0.793 ± 0.61
WQSFGVSGRLPYRQWSD | inactive
YCDNDSYH | 1.42 ± 0.44
GRGVLDYNGTTKKARVNRLC | inactive
CDWYDQMREVGESYVALSYN | -0.386 ± 0.48
YSITIRITEYNGVVSTGLHL | 0.325 ± 0.6
VLGLGSC | -0.15 ± 0.54
VERFDLHLSD | 1.06 ± 0.6

Substance | amyloid nucleation score
LWVNTDSSLECHRWLRVIV | 1.2 ± 0.37
NEGEVIAELIIFVNPWVTI | -0.599 ± 0.43
ISICDVYLWVHMRYSL | 0.584 ± 0.21
LDHYDVSGNRMVL | -0.487 ± 0.27
FHMAKRLYC | 0.276 ± 0.46
VCFMKCLLSCAIEYSRRLDI | 1.9 ± 0.64
VVGSVLRGSYTCLG | -0.972 ± 0.82
ITVDAMIKSVYFITDSYRHF | 0.911 ± 0.26
DLCATDMGGYKRGEGPEGAL | -0.267 ± 1.1
SRGVQGMYDDYKDGGLLYLV | -0.228 ± 0.19
SCNCHWY | 1.49 ± 0.74
VVWEQSIDVILGYMGLGPD | 0.381 ± 0.49
NSYRFSLFQ | 1.32 ± 0.46
TMFIFCWKTGVCLYCNLFTS | -0.591 ± 0.4
RYSQTKDLKVLLQHFFIYKF | -1.23 ± 1.7
GIVGSG | 2.29 ± 0.29
TITDNSPNKTMIEVEEIRL | 0.109 ± 1.1
GSCFTVWMIGPGRRTLLQVL | -0.079 ± 0.54
VKVRFIRIYYFFCNSKDFRG | -0.308 ± 0.31
EDTSKVKICFSVIVYSMLNR | 8.161 ± 0.045
VLFHHSSQIRVI | inactive
PTSSGNATAWRNLNLLLCEL | 0.328 ± 0.97
TSGWCSRLQIIGLYLNVLVC | 5.47 ± 0.06
MKRDSFPLFNFCLA | 0.137 ± 0.5
